Assay results as given in patent publication US20230414660A1 (LUDWIG INSTITUTE FOR CANCER RESEARCH, published 2023).
Changes are numbered by the printed parent chain.

B1: WT PD1 (receptor)
chain: MASDSPDRPWNPPTFSPALLVVTEGDNATFTCSFSNTSESFVLNWYRMSPSNQTDKLAAFPEDRSQPGQDARFRVTQLPNGRDFHMSVVRARRNDSGTYLCGAISLAPKAQIKESLRAELRVTERRALEHHHHHH
notes: Soluble monomeric protein made in bacteria with a C-terminal 6xHis tag and detected with anti-His antibody; also called WT PD1 decoy; WT PD-1 decoy
B2: Core L (receptor)
chain: B1 chain with M48E, T54D, K56R, L100E, A110L, Q111K
notes: PD1 decoy variant, bacterial, C-terminal 6xHis
B3: B2 4XB (receptor)
chain: B1 chain with M48D, T54D, K56R, Q111K
notes: as for B2
B4: Core A (receptor)
chain: B1 chain with M48E, T54D, K56R, L100E, Q111K
notes: as for B2
B5: PD1_6XD (with 6xHis) (receptor)
chain: B1 chain with M48E, T54V, K56R, L100F, A110W, Q111K
notes: Soluble monomeric, bacterial production
B6: T_76D (receptor)
chain: B1 chain with T54D
notes: as for B2
B7: 6XC (receptor)
chain: B1 chain with M48E, T54V, K56R, L100I, A110W, Q111K
notes: as for B2
B8: PD1_4XMUT (with 6xHis) (receptor)
chain: B1 chain with M48E, T54D, K56R, L100F, Q111K
notes: as for B5
B9: Core_W (receptor)
chain: B1 chain with M48E, T54D, K56R, L100E, A110W, Q111K
notes: as for B2
B10: A132W (receptor)
chain: B1 chain with A110W
notes: as for B2
B11: X1 4XMut (receptor)
chain: B1 chain with M48E, T54D, K56R, Q111K
notes: as for B2
B12: PD1_6XDM (with 6xHis) (receptor)
chain: B1 chain with T54V, K56R, L100F, A110W, Q111K
notes: as for B5
B13: PD1_4XMUT_M70 (with 6xHis) (receptor)
chain: B1 chain with T54D, K56R, L100F, Q111K
B14: L122E (receptor)
chain: B1 chain with L100E
notes: as for B2
B15: M70E (receptor)
chain: B1 chain with M48E
notes: as for B2
B16: 5XD (receptor)
chain: B1 chain with M48E, T54V, K56R, L100F, Q111K
notes: as for B2
B17: Q133K (receptor)
chain: B1 chain with Q111K
notes: as for B2
B18: K_78R (receptor)
chain: B1 chain with K56R
notes: as for B2
B19: 6XB (receptor)
chain: B1 chain with M48E, T54D, K56R, L100I, A110W, Q111K
notes: as for B2

Each binder was assayed against T1, human PDL1 protein (human, UniProt Q9NZQ7 19-238, limits assumed) (assay: titration ELISA, soluble His-tagged PD1 decoy on plate-coated human PD-L1, anti-His detection).
T1 construct: also called plate-captured PD-L1
T1 sequence (Q9NZQ7 19-238 limits assumed): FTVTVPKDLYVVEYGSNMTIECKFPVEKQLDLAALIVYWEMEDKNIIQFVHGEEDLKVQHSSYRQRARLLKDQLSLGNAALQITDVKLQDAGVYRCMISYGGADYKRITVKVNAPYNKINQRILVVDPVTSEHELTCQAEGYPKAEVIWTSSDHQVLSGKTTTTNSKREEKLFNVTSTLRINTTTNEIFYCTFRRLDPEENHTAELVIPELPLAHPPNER

Affinity to PD-L1 (relative to WT PD1) | Binder
1 fold relative to WT PD1 | B1
1.7 fold relative to WT PD1 | B2
7.3 fold relative to WT PD1 | B3
7.1 fold relative to WT PD1 | B4
7.2 fold relative to WT PD1 | B5
8.3 fold relative to WT PD1 | B6
1.1 fold relative to WT PD1 | B7
5 fold relative to WT PD1 | B8
1020 fold relative to WT PD1 | B9
3 fold relative to WT PD1 | B10
5.6 fold relative to WT PD1 | B11
7.5 fold relative to WT PD1 | B12
10 fold relative to WT PD1 | B13
3 fold relative to WT PD1 | B14
5.2 fold relative to WT PD1 | B15
1.1 fold relative to WT PD1 | B16
3 fold relative to WT PD1 | B17
1.4 fold relative to WT PD1 | B18
1.3 fold relative to WT PD1 | B19
